# Data from patent US20210260070A1, “LYSIN CF-301 RESENSITIZES METHICILLIN-RESISTANT STAPHYLOCOCCUS AUREUA (MRSA) TO PENICILLIN DERIVATIVES AND FIRST GENERATION CEPHALOSPORINS” (priority 2018, published 2021).
# Several values for one entry are separate records, joined by “and”; a condition that tells them apart may be missing. Equal entries are not always repeated.
# B1: PlySs2: bacteriophage lysin derived from Streptococcus suis, amino acid sequence SEQ ID NO: 1 (245 residues) (protein, listed as Streptococcus suis)
# chain: MTTVNEALNNVRAQVGSGVSVGNGECYALASWYERMISPDATVGLGAGVGWVSGAIGDTISAKNIGSSYNWQANGWTVSTSGPFKAGQIVTLGATPGNPYGHVVIVEAVDGDRLTILEQNYGGKRYPVRNYYSAASYRQQVVHYITPPGTVAQSAPNLAGSRSYRETGTMTVTVDALNVRRAPNTSGEIVAVYKRGESFDYDTVIIDVNGYVWVSYIGGSGKRNYVATGATKDGKRFGNAWGTFK
# What was measured:
# Format in all cases: cell-based, Staphylococcus aureus
# S. aureus strain MW2 = assay: MIC of parental strain
# Method: (§1) An ex vivo analysis was performed on tissue samples recovered after PlySs2 treatment in a standard rabbit model of MRSA infective endocarditis (IE), as disclosed in Xiong et al., Comparative efficacy of telavancin and daptomycin in experimental endocarditis due to multi-clonotype MRSA strains, J. ANTIMIC. CHEMO. (2016); 71(1):2890-94. The standard rabbit IE model was used to confirm the impact of PlySs2 treatment on oxacillin MICs. Four days after treatment with a single-dose of PlySs2 (0.18 mg/kg to 1.4 mg/kg) in the IE model, isolates were recovered from valvular vegetations and plated on TSAB (non-selective condition, Tables 3 and 4) and TSAB supplemented with PlySs2 over a range of concentrations (selective conditions, Tables 5 and 6). MIC values of the MRSA isolates were determined for both PlySs2 and oxacillin. Tables 3 and 4 below show the MICs calculated for PlySs2 and oxacillin, respectively, for valvular vegetations subject to the non-selective conditions.
# MRSA strain JMI 227 = assay: Broth microdilution checkerboard assay; parameters: unit not given here; settings: for MICfinal: * = Resensitization
# Excerpt: (§2) In some embodiments, the present lysin polypeptides reduce the minimum inhibitory concentration (MIC) of an antibiotic. Any known method to assess MIC may be used. In some embodiments, a checkerboard assay is used to determine the effect of a lysin on antibiotic concentration. The checkerboard assay is based on a modification of the CLSI method for MIC determination by broth microdilution (See Clinical and Laboratory Standards Institute (CLSI), CLSI. 2015. Methods for Dilution Antimicrobial Susceptibility Tests for Bacteria That Grow Aerobically; Approved Standard-10th Edition. Clinical and Laboratory Standards Institute, Wayne, Pa., which is herein incorporated by reference in its entirety and Ceri et al. 1999. J. Clin. Microbiol. 37: 1771-1776, which is also herein incorporated by reference in its entirety).
# (§3) Checkerboards are constructed by first preparing columns of e.g., a 96-well polypropylene microtiter plate, wherein each well has the same amount of antibiotic diluted 2-fold along the horizontal axis. […] The lysin and antibiotic dilutions are then combined, so that each column has a constant amount of antibiotic and doubling dilutions of lysin, while each row has a constant amount of lysin and doubling dilutions of antibiotic. Each well thus has a unique combination of lysin and antibiotic. Bacteria are added to the drug combinations at a given concentration. […] Summation fractional inhibitory concentrations (ΣFICs) are calculated for each drug and the minimum ΣFIC value (ΣFICmin) is used to determine the effect of the lysin/antibiotic combination.
# (§4) A step-wise approach was used to evaluate PlySs2 as a resensitizing agent. First, broth microdilution checkerboard assays were used to determine fractional inhibitory concentration index (FICI) values for combinations of PlySs2 with three β-lactam antibiotics [oxacillin (OXA), nafcillin (NAF), and cefazoline (CFZ)] against nine different MRSA strains. Data from the checkerboard assays were generated to determine the interaction and potency of PlySs2 with the β-lactam antibiotics in comparison to their individual activities. This comparison is represented as the FICI value, whereby values of ≤0.5 are consistent with synergy, values of >0.5-<1 are highly-additive, values of 1-≤2 are indifferent, and values >2 are antagonistic. Representative single agent MICs are also shown, determined for each agent alone (initial) and in combinations (final). Resensitization occurs in synergistic combinations in which the β-lactam antibiotic MIC values fall below established breakpoints, e.g. a MIC value of ≤2 for β-lactam-sensitive isolates, a MIC value of ≥4 for β-lactam-resistant isolates. See Clinical and Laboratory Standards Institute (CLSI), CLSI. 2019. M100 Performance Standards for Antimicrobial Susceptibility Testing; 29th Edition. Clinical and Laboratory Standards Institute, Wayne, Pa.
# MRSA strain MW2 = assay: Broth microdilution checkerboard assay; parameters: unit not given here; settings: for MICfinal: * = Resensitization
# Excerpt: as §2, §3, §4
# MRSA strain HPV 107 = assay: Broth microdilution checkerboard assay; parameters: unit not given here; settings: for MICfinal: * = Resensitization
# Excerpt: as §2, §3, §4
# MRSA strain CAIRD 426 = assay: Broth microdilution checkerboard assay; parameters: unit not given here; settings: for MICfinal: * = Resensitization
# Excerpt: as §2, §3, §4
# MRSA strain ATCC 43300 = assay: Broth microdilution checkerboard assay; parameters: unit not given here; settings: for MICfinal: * = Resensitization
# Excerpt: as §2, §3, §4
# MRSA strain JMI4789 = assay: Broth microdilution checkerboard assay; parameters: unit not given here; settings: for MICfinal: * = Resensitization
# Excerpt: as §2, §3, §4
# MRSA strain ATCC 33591 = assay: Broth microdilution checkerboard assay; parameters: unit not given here; settings: for MICfinal: * = Resensitization
# Excerpt: as §2, §3, §4
# MRSA strain NRS 11 = assay: Broth microdilution checkerboard assay; parameters: unit not given here; settings: for MICfinal: * = Resensitization
# Excerpt: as §2, §3, §4
# MRSA strain JMI 1280 = assay: Broth microdilution checkerboard assay; parameters: unit not given here; settings: for MICfinal: * = Resensitization
# Excerpt: as §2, §3, §4
# [1] = system: MRSA MW2 mutant and control isolates from valvular vegetations; assay: MICs of mutant and control isolates from the rabbit IE study
# Excerpt: The PlySs2 and oxacillin MICs of each mutant and control strain are shown below in Tables 7 and 8, wherein + indicates the presence of the mutation and—indicates an absence of the mutation.
# [2] = system: MRSA isolates from valvular vegetations; assay: MIC values of MRSA isolates recovered from valvular vegetations after PlySs2 treatment (ex vivo)
# Method: as §1
# [3] = in combination PlySs2 + CFZ (final)
# [4] = in combination PlySs2 + NAF (final)
# [5] = in combination PlySs2 + OXA (final)
# [6] = non-selective, PlySs2 0.18 mg/kg (n = 24)
# [7] = non-selective, PlySs2 0.35 mg/kg (n = 24)
# [8] = non-selective, PlySs2 0.7 mg/kg (n = 24)
# [9] = non-selective, PlySs2 1.4 mg/kg (n = 24)
# [10] = selective conditions, PlySs2 0.18 mg/kg (n = 24)
# [11] = selective conditions, PlySs2 0.35 mg/kg (n = 24)
# [12] = selective conditions, PlySs2 0.7 mg/kg (n = 24)
# [13] = selective conditions, PlySs2 1.4 mg/kg (n = 24)
molecule,measurement,setting,value
B1,MIC of S. aureus strain MW2,S. aureus strain MW2,1 µg/mL
same,MICinitial,MRSA strain JMI 227; each agent alone (initial),1
same,MICfinal,MRSA strain JMI 227; [3],0.25
same,MICfinal,MRSA strain JMI 227; [4],0.25
same,MICfinal,MRSA strain JMI 227; [5],0.25
same,MICinitial,MRSA strain MW2; each agent alone (initial),1 and 2
same,MICfinal,MRSA strain MW2; [3],0.125
same,MICfinal,MRSA strain MW2; [4],0.5
same,MICfinal,MRSA strain MW2; [5],0.25
same,MICinitial,MRSA strain HPV 107; each agent alone (initial),1
same,MICfinal,MRSA strain HPV 107; [3],0.125
same,MICfinal,MRSA strain HPV 107; [4],0.25
same,MICfinal,MRSA strain HPV 107; [5],0.25
same,MICinitial,MRSA strain CAIRD 426; each agent alone (initial),1
same,MICfinal,MRSA strain CAIRD 426; [3],0.25
same,MICfinal,MRSA strain CAIRD 426; [4],0.25
same,MICfinal,MRSA strain CAIRD 426; [5],0.25
same,MICinitial,MRSA strain ATCC 43300; each agent alone (initial),1
same,MICfinal,MRSA strain ATCC 43300; [3],0.125
same,MICfinal,MRSA strain ATCC 43300; [4],0.125
same,MICfinal,MRSA strain ATCC 43300; [5],0.25
same,MICinitial,MRSA strain JMI4789; each agent alone (initial),1
same,MICfinal,MRSA strain JMI4789; [3],0.125
same,MICfinal,MRSA strain JMI4789; [4],0.125
same,MICfinal,MRSA strain JMI4789; [5],0.25
same,MICinitial,MRSA strain ATCC 33591; each agent alone (initial),1
same,MICfinal,MRSA strain ATCC 33591; [3],0.25
same,MICfinal,MRSA strain ATCC 33591; [4],1.125
same,MICfinal,MRSA strain ATCC 33591; [5],0.25
same,MICinitial,MRSA strain NRS 11; each agent alone (initial),1
same,MICfinal,MRSA strain NRS 11; [3],0.25
same,MICfinal,MRSA strain NRS 11; [4],0.25
same,MICfinal,MRSA strain NRS 11; [5],0.25
same,MICinitial,MRSA strain JMI 1280; each agent alone (initial),1
same,MICfinal,MRSA strain JMI 1280; [3],0.25
same,MICfinal,MRSA strain JMI 1280; [4],0.25
same,MICfinal,MRSA strain JMI 1280; [5],0.25
same,MIC,[1]; Control #1 isolate,(1 μg/mL)/
same,MIC,[1]; Control #2 isolate,(2 μg/mL)/
same,MIC,[1]; Control #3 isolate,(2 μg/mL)
same,MIC,"[1]; Mutant #1 (hlgCB near, mprF L291I, rlmH K159R, ΔSCCmec)",(2 μg/mL)
same,MIC,"[1]; Mutant #2 (hlgCB near, graR I158S, rlmH K159R, ΔSCCmec)",(1 μg/mL)
same,PlySs2 MIC of recovered isolates,"[2]; non-selective conditions, remained stable",1 µg/mL
same,Number of isolates with Oxacillin MIC 32 μg/mL,[2]; [6],16
same,Number of isolates with PlySs2 MIC 1 μg/mL,[2]; [6],16
same,Number of isolates with Oxacillin MIC 32 μg/mL,[2]; [7],18
same,Number of isolates with Oxacillin MIC ≤2 μg/mL,[2]; [7],6
same,Number of isolates with PlySs2 MIC 0.5 μg/mL,[2]; [7],3
same,Number of isolates with PlySs2 MIC 1 μg/mL,[2]; [7],21
same,Number of isolates with Oxacillin MIC 16 μg/mL,[2]; [8],1
same,Number of isolates with Oxacillin MIC 32 μg/mL,[2]; [8],23
same,Number of isolates with PlySs2 MIC 0.5 μg/mL,[2]; [8],1
same,Number of isolates with PlySs2 MIC 1 μg/mL,[2]; [8],23
same,Number of isolates with Oxacillin MIC 32 μg/mL,[2]; [9],17
same,Number of isolates with Oxacillin MIC ≤2 μg/mL,[2]; [9],7
same,Number of isolates with PlySs2 MIC 1 μg/mL,"[2]; non-selective, rabbits given PlySs2 1.4 mg/kg (n = 24)",24
same,PlySs2 MIC increase,"[2]; selective conditions, isolates after PlySs2 treatment",≤ 2 fold
same,Number of isolates with Oxacillin MIC 32 μg/mL,[2]; [10],16
same,Number of isolates with PlySs2 MIC 1 μg/mL,[2]; [10],14
same,Number of isolates with PlySs2 MIC 2 μg/mL,[2]; [10],2
same,Number of isolates with Oxacillin MIC 32 μg/mL,[2]; [11],17
same,Number of isolates with Oxacillin MIC <2 μg/mL,[2]; [11],7
same,Number of isolates with PlySs2 MIC 1 μg/mL,[2]; [11],22
same,Number of isolates with PlySs2 MIC 2 μg/mL,[2]; [11],2
same,Number of isolates with Oxacillin MIC 32 μg/mL,[2]; [12],21
same,Number of isolates with PlySs2 MIC 1 μg/mL,[2]; [12],19
same,Number of isolates with PlySs2 MIC 2 μg/mL,[2]; [12],3
same,"Number of isolates with Oxacillin MIC between <2 and 32 μg/mL (4, 8 or 16)","[2]; selective conditions, PlySs2 0.7 mg/kg (n = 24), column not resolvable",3
same,Number of isolates with Oxacillin MIC 32 μg/mL,[2]; [13],21
same,Number of isolates with Oxacillin MIC <2 μg/mL,[2]; [13],3
same,Number of isolates with PlySs2 MIC 1 μg/mL,[2]; [13],20
same,Number of isolates with PlySs2 MIC 2 μg/mL,[2]; [13],4
same,PlySs2 MIC of recovered isolates,"[2]; selective conditions, remained largely stable",1 µg/mL
